One assay has as its system GFP-14-3-3β. Nature of the assay: GFP-14-3-3β co-IP with LC-MS/MS, untreated GFP-14-3-3β versus GFP control (14-3-3 interactome). Format: binding, human. Conditions: log2 difference; pairwise comparison untreated vs GFP, label-free quantification, 3 replicates each.
The subject of assay [1] is GFP-14-3-3β and its binding proteins. Nature of the assay: GFP-14-3-3β co-IP with LC-MS/MS label-free quantification, untreated versus PP1c-treated. Also on record: species or system human. Conditions: log2 difference; pairwise comparison PP1 vs untreated, label-free quantification, 3 replicates each.

B1: SRPK1 (protein, UniProt Q96SB4 1-655, looked up)
SRSF protein kinase 1: MERKVLALQARKKRTKAKKDKAQRKSETQHRGSAPHSESDLPEQEEEILGSDDDEQEDPNDYCKGGYHLVKIGDLFNGRYHVIRKLGWGHFSTVWLSWDIQGKKFVAMKVVKSAEHYTETALDEIRLLKSVRNSDPNDPNREMVVQLLDDFKISGVNGTHICMVFEVLGHHLLKWIIKSNYQGLPLPCVKKIIQQVLQGLDYLHTKCRIIHTDIKPENILLSVNEQYIRRLAAEATEWQRSGAPPPSGSAVSTAPQPKPADKMSKNKKKKLKKKQKRQAELLEKRMQEIEEMEKESGPGQKRPNKQEESESPVERPLKENPPNKMTQEKLEESSTIGQDQTLMERDTEGGAAEINCNGVIEVINYTQNSNNETLRHKEDLHNANDCDVQNLNQESSFLSSQNGDSSTSQETDSCTPITSEVSDTMVCQSSSTVGQSFSEQHISQLQESIRAEIPCEDEQEQEHNGPLDNKGKSTAGNFLVNPLEPKNAEKLKVKIADLGNACWVHKHFTEDIQTRQYRSLEVLIGSGYNTPADIWSTACMAFELATGDYLFEPHSGEEYTRDEDHIALIIELLGKVPRKLIVAGKYSKEFFTKKGDLKHITKLKPWGLFEVLVEKYEWSQEEAAGFTDFLLPMLELIPEKRATAAECLRHPWLNS
Consider B1, for which the “Difference (log2), untreated vs GFP” value with GFP-14-3-3β was determined as 0.8168. Also, the “Difference (log2), PP1 vs untreated” value in assay [1] turned out to be 1.464.

B2: FAM83H (protein, UniProt Q6ZRV2 1-1179, looked up)
Protein FAM83H: MARRSQSSSQGDNPLAPGYLPPHYKEYYRLAVDALAEGGSEAYSRFLATEGAPDFLCPEELEHVSRHLRPPQYVTREPPEGSLLDVDMDGSSGTYWPVNSDQAVPELDLGWPLTFGFQGTEVTTLVQPPPPDSPSIKDEARRMIRSAQQVVAVVMDMFTDVDLLSEVLEAAARRVPVYILLDEMNAQHFLDMADKCRVNLQHVDFLRVRTVAGPTYYCRTGKSFKGHVKEKFLLVDCAVVMSGSYSFMWSFEKIHRSLAHVFQGELVSSFDEEFRILFAQSEPLVPSAAALARMDAYALAPYAGAGPLVGVPGVGAPTPFSFPKRAHLLFPPPREEGLGFPSFLDPDRHFLSAFRREEPPRMPGGALEPHAGLRPLSRRLEAEAGPAGELAGARGFFQARHLEMDAFKRHSFATEGAGAVENFAAARQVSRQTFLSHGDDFRFQTSHFHRDQLYQQQYQWDPQLTPARPQGLFEKLRGGRAGFADPDDFTLGAGPRFPELGPDGHQRLDYVPSSASREVRHGSDPAFAPGPRGLEPSGAPRPNLTQRFPCQAAARPGPDPAPEAEPERRGGPEGRAGLRRWRLASYLSGCHGEDGGDDGLPAPMEAEAYEDDVLAPGGRAPAGDLLPSAFRVPAAFPTKVPVPGPGSGGNGPEREGPEEPGLAKQDSFRSRLNPLVQRSSRLRSSLIFSTSQAEGAAGAAAATEKVQLLHKEQTVSETLGPGGEAVRSAASTKVAELLEKYKGPARDPGGGAGAITVASHSKAVVSQAWREEVAAPGAVGGERRSLESCLLDLRDSFAQQLHQEAERQPGAASLTAAQLLDTLGRSGSDRLPSRFLSAQSHSTSPQGLDSPLPLEGSGAHQVLHNESKGSPTSAYPERKGSPTPGFSTRRGSPTTGFIEQKGSPTSAYPERRGSPVPPVPERRSSPVPPVPERRGSLTLTISGESPKAGPAEEGPSGPMEVLRKGSLRLRQLLSPKGERRMEDEGGFPVPQENGQPESPRRLSLGQGDSTEAATEERGPRARLSSATANALYSSNLRDDTKAILEQISAHGQKHRAVPAPSPGPTHNSPELGRPPAAGVLAPDMSDKDKCSAIFRSDSLGTQGRLSRTLPASAEERDRLLRRMESMRKEKRVYSRFEVFCKKEEASSPGAGEGPAEEGTRDSKVGKFVPKILGTFKSKK
B2: the “Difference (log2), untreated vs GFP” value with GFP-14-3-3β is given as -1.013. The “Difference (log2), PP1 vs untreated” value in assay [1] is recorded as 1.455.
